Here are results for one protein from paper PMC6996649, “Rational Engineered C-Acyltransferase Transforms Sterically Demanding Acyl Donors” (ACS Catalysis, 2019).

Substrate in the data set: CC(=O)c1c(O)cc(O)cc1O
The experiment in a line: purified protein. It is filed as biochemical, Pseudomonas protegens. Particulars: disproportionation to DAPG, 100 mM potassium phosphate pH 7.5, 35 °C.

B1: PpATaseCH (Pseudomonas protegens Pf-5) (protein)
chain: MCARRVAIVSAAYTPKPGSSRVRQTFKEMIVESAYKALKDAKMHPREIQAVAYGYHGEGISEYGGLGPTISDALGISPAPTFMSTANCTSSSVSFQMGHQMVASGEYDIVLCGGFEKMTDHFNYAEYIGSSTECEYDYFLGISHTDAFALATAEYFQKFGYAGREADVLATFGRQMRIYAQNTPTATRYGQPIPSLEVLKNSEACGSMLAWGEASGCAILVAEHLAHKYTDKPVFVRGCAYTGVSHYFGTRFHNPTLHHPGLPKDVGMAVSANSIACAEIAYKKAGITAKDIDVAQVYDLLGAGLIQMESMGICGKGQAGDFVLEGGIALDGQLPLNTDGGNIGRGHASGCDGILHITELFRQLRGESDNQVKGARIGVSQNLGGYAAHNSVIVLSND
notes: PhlABC multi-subunit acyltransferase from codon-harmonized construct, recombinant in E. coli, purified enzyme; with 2,4-diacetylphloroglucinol biosynthesis acyltransferase subunit PhlA; 2,4-diacetylphloroglucinol biosynthesis acyltransferase subunit PhlB
Take B1: the Km amounted to 290 ± 40 µM, the Vmax came out at 4830 µM/min, the kcat was 72 ± 8 s⁻¹ and the kcat/Km is 251000 ± 15000 M⁻¹ s⁻¹.
